Laboratory results taken from publication PMC4332252 (The Journal of Cell Biology, 2015).

T1: Plk4-EGFP (Drosophila melanogaster, UniProt O97143 1-769)
T1 sequence (looked up): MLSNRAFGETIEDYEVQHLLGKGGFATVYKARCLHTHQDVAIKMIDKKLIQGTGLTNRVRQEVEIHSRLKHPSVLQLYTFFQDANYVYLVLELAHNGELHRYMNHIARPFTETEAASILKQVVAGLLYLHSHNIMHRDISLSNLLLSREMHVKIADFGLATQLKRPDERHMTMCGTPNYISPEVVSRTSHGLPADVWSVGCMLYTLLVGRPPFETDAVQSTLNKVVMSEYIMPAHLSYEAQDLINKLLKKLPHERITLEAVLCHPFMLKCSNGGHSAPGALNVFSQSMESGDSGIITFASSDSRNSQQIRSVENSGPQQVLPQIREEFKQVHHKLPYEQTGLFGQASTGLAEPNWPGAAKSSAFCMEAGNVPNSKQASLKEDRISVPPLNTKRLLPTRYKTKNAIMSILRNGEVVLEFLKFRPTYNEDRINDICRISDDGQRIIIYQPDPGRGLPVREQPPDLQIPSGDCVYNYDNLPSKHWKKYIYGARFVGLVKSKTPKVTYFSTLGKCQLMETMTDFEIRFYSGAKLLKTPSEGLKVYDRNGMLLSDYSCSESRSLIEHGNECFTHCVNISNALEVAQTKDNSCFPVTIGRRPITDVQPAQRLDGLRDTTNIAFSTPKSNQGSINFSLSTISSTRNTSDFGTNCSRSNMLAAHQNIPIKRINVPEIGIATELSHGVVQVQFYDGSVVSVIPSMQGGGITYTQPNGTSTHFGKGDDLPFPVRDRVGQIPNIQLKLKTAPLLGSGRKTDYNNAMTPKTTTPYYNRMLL

B1: His6-Asl-B (aa 358-625) (domain or fragment, Drosophila melanogaster, UniProt Q9VNE4 358-625, looked up)
chain: TSRLSQMGGSRLVGSTPLNPLDRVGHIKQELYRALGNLKNKREEVRRLEKLLEERNQELRVLRDQENQSLVQLETLNEGKMRLENKVKAMQQELEEQKHRSQQESDVHSQLNSIVAERDALREKRQQIEEDLEQLKQQNESLQRNYDQLSQENRQLRTRETADNLRLELERHKILLRDSQSEVERLKKLYSDIATDKESLGYELRKLRESDTLKELQDQRQNLATVQRNLQLAEMKSEELKKLLETEKLSHERDLQALRQRSEREKRE
B2: His6-Asl-C (aa 626-994) (domain or fragment, Drosophila melanogaster, UniProt Q9VNE4 626-994, looked up)
chain: EAVAVAKESSENCSKCIESIAEITKAEIQLLKLQNVNSMQAKELKELEHALEQSKNLQAEMQEKIELSNKQDELISDLKERAKQFEAYIRQQEEHKQQNKCTPSPKSNSVSPSDPSPKELTQNRIRLIEQRVRDEMAKLFAAELKRFTNRLQKSEERSQCLQREYQTVCAELQQRQTEVDLLKQTILAERENIDEILAGREEKQKEMLQKCRQELQAKNQRIAELLREVEEQHASIDSERQSMKAVMAQWEKQRQSVDQVEHHWRQQLESLRSTHEEAMRSAQQRYQSAKRTAHNYKLYAEDKEAHMKREYERIKHEYELSLAKIEATMNQHLERRSREKHRDKENVPSNSSSDPITNSNRKPKGNGHS
B3: Plk4-myc (natural protein, Drosophila melanogaster, UniProt O97143 1-769, looked up)
chain: MLSNRAFGETIEDYEVQHLLGKGGFATVYKARCLHTHQDVAIKMIDKKLIQGTGLTNRVRQEVEIHSRLKHPSVLQLYTFFQDANYVYLVLELAHNGELHRYMNHIARPFTETEAASILKQVVAGLLYLHSHNIMHRDISLSNLLLSREMHVKIADFGLATQLKRPDERHMTMCGTPNYISPEVVSRTSHGLPADVWSVGCMLYTLLVGRPPFETDAVQSTLNKVVMSEYIMPAHLSYEAQDLINKLLKKLPHERITLEAVLCHPFMLKCSNGGHSAPGALNVFSQSMESGDSGIITFASSDSRNSQQIRSVENSGPQQVLPQIREEFKQVHHKLPYEQTGLFGQASTGLAEPNWPGAAKSSAFCMEAGNVPNSKQASLKEDRISVPPLNTKRLLPTRYKTKNAIMSILRNGEVVLEFLKFRPTYNEDRINDICRISDDGQRIIIYQPDPGRGLPVREQPPDLQIPSGDCVYNYDNLPSKHWKKYIYGARFVGLVKSKTPKVTYFSTLGKCQLMETMTDFEIRFYSGAKLLKTPSEGLKVYDRNGMLLSDYSCSESRSLIEHGNECFTHCVNISNALEVAQTKDNSCFPVTIGRRPITDVQPAQRLDGLRDTTNIAFSTPKSNQGSINFSLSTISSTRNTSDFGTNCSRSNMLAAHQNIPIKRINVPEIGIATELSHGVVQVQFYDGSVVSVIPSMQGGGITYTQPNGTSTHFGKGDDLPFPVRDRVGQIPNIQLKLKTAPLLGSGRKTDYNNAMTPKTTTPYYNRMLL
B4: His6-Asl-A (aa 1-357) (domain or fragment, Drosophila melanogaster, UniProt Q9VNE4 1-357, looked up)
chain: MNTPGISLFQGADALNINSTLDRQEEEEALQDQKRREEELGRIMVNAFDDLLDEENTIDSTTNYQSELEQPPVLPNYPSHPHHKPLQDDAQRANEIEMHRLQILLESKNNELQNVNQVANAAHKKLDDLQKHLSIMQAELDRAIREKQNTHELLVETKETCSNKDSDLDKLRSEKKQLEEDNTRLVGQLEAAKTLLTDVQSKYDMVQASKQKWEERNADLRLKQMEEAHRAQSDLLQQQLCQMKDQLDRKQNELDQINSRYNALQSGHETMLVDKAAKINELSQALDEAQMRCNQLSARPDLQAENRRQQQCIVDLKARIAYLEQTVASLHERLNETTTELDLIDSVIQQHQADESP

Legend:
SEC-MALS = molecular target: the molecule itself; test: SEC-MALS
Plk4-EGFP = molecular target: T1, Plk4-EGFP; test: co-IP

Binder | stoichiometry N (SEC-MALS) | fold increase of bound Plk4-myc with Asl coexpressed, against without Asl (Plk4-EGFP) [fold]
B1 | 2 | 
B2 | 3 | 
B3 |  | ~4
B4 | 2 | 
